Results taken from patent US20220145332.

System: hsSB (high-solubility Sleeping Beauty transposase, recombinant) (artificial)
Assay: cell_activity
Details: HeLa, 3 weeks

Row | Substance | activity (% Venus-positive cells) (hsSB added to culture medium, up to 3.31% in iPSCs (FIG. 9)) | activity (% Venus-positive cells) (protein electroporation, 20 ug hsSB, maximum efficiency, also active in CHO and mESC)
1 | Venus transposon minicircle (SB LE/RE ends) | < 12 | 
2 | Venus transposon plasmid (SB LE/RE ends) |  | 42
